Assay results reported in publication PMC10643153.
Where “and” joins values, the source holds several entries; their conditions need not be identical. Equal entries are not always repeated.

Columns and labels:
[1] = target: recombinant goldfish AdipoQ (His-tagged gAdipoQ) (goldfish (Carassius auratus)); assay: native gel or EMSA; self-association; protein electrophoresis in native gel under non-denaturing conditions, Coomassie blue staining; parallel SDS-PAGE as reference for the monomer
[2] = target: recombinant goldfish AdipoQ (His-tagged gAdipoQ) (goldfish (Carassius auratus)); assay: SEC-MALS; self-association; top five fractions of the SEC peak pooled, 200-µl sample on a Superose 12 10/300 GL column linked with a DynaPro NanoStar instrument; apparent MW in solution

recombinant goldfish AdipoQ (His-tagged gAdipoQ) (domain or fragment)
stoichiometry N [1]: 3 and 6 | stoichiometry N [2]: 3
